Measured values: US20210246166A1 (Bayer, published 2021)
Numbered stars: 1 amine (or outer) side, 2 acyl side, 3 side chain; on linkers, the order of the positions; unused ones are H or OH. Bridge positions count the residues as written; N and C are the ends. Square brackets hold non-standard residues; d marks the D form. Ends that are not written are not given here. Freidinger's Lactam = (2S)-2-[(3R)-3-amino-2-oxopyrrolidin-1-yl]-4-methylpentanoic acid (Freidinger's lactam), CC(C)C[C@@H](C(=O)[*:2])N1CC[C@@H](N[*:1])C1=O; X13 = (2S)‑2‑amino‑3‑(1-methylcyclopropyl)propanoic acid, CC1(C[C@H](N[*:1])C(=O)[*:2])CC1; X15 = (3S)‑2‑azaspiro(4.4)nonane‑3‑carboxylic acid, O=C([C@@H]1CC2(CCCC2)CN1[*:1])[*:2]; (R)‑Pyrrolidine‑3‑acetic acid = O=C(C[C@H]1CCN([*:1])C1)[*:2]; Ida = iminodiacetic acid, O=C(CN(CC(=O)[*:3])[*:1])[*:2]; Phe(2,5-diF) = O=C([C@H](Cc1cc(F)ccc1F)N[*:1])[*:2]; Pro(3S,4R-methano) = O=C(O)[C@H]1NC[C@@H]2C[C@@H]21; Pro(cis-4-CF3) = O=C(O)[C@@H]1C[C@H](C(F)(F)F)CN1; Pro(4-spirocPr) = O=C(O)[C@@H]1CC2(CC2)CN1; Oic = O=C(O)[C@@H]1C[C@@H]2CCCC[C@@H]2N1; tBuAla = CC(C)(C)C[C@H](N)C(=O)O; Pen = CC(C)(S)[C@H](N)C(=O)O; Sar = CNCC(=O)O

T1: Recombinant human MASP1 enzyme (fragment corresponding to amino acids 297-699, C-terminal His Tag) (human, UniProt P48740 297-699)
T1 sequence: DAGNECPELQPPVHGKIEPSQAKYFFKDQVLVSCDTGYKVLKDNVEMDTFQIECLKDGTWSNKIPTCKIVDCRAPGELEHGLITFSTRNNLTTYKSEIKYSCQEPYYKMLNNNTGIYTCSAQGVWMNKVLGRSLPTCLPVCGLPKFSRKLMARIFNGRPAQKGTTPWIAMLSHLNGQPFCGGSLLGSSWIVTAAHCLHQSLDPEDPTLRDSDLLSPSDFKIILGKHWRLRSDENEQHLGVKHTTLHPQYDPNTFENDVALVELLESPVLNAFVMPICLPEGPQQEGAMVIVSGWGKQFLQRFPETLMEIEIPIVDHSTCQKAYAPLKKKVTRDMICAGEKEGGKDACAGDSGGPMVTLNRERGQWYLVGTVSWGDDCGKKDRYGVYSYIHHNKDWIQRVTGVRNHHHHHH


Tests used:
[1] = target: T1, Recombinant human MASP1 enzyme …; experiment: cell-based or functional assay
[2] = target: Recombinant human MASP2 enzyme (fragment corresponding to amino acids 297-686, C-terminal His Tag) (human, UniProt O00187 297-686); experiment: cell-based or functional assay
Recombinant human MASP2 enzyme (fragment corresponding to amino acids 297-686, C-terminal His Tag), sequence (O00187 other isoform, or with tags, fused parts or gaps limits assumed): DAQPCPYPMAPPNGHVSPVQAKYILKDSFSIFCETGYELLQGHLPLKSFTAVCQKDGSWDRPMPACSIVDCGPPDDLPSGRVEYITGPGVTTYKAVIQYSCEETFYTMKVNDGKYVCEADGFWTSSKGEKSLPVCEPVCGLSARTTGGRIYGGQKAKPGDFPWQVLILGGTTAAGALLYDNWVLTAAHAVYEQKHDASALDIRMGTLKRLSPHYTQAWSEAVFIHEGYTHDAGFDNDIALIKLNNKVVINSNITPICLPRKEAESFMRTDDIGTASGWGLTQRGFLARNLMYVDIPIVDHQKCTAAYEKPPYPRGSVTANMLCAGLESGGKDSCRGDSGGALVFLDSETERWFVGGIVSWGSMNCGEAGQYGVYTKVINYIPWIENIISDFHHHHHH

| human MASP1 IC50 [1] | human MASP2 IC50 [2] | Binder |
| --- | --- | --- |
| 6.78 nM | 116 nM | [Sar]ICSRSLP[Oic]I[Pen]IP[(R)‑Pyrrolidine‑3‑acetic acid]-OH (disulfide 3-11; N-terminus assumed; SMILES CC[C@H](C)[C@H](NC(=O)CNC)C(=O)N[C@H]1CSSC(C)(C)[C@@H](C(=O)N[C@H](C(=O)N2CCC[C@H]2C(=O)N2CC[C@H](CC(=O)O)C2)[C@@H](C)CC)NC(=O)[C@H]([C@@H](C)CC)NC(=O)[C@@H]2C[C@@H]3CCCC[C@@H]3N2C(=O)[C@@H]2CCCN2C(=O)[C@H](CC(C)C)NC(=O)[C@H](CO)NC(=O)[C@H](CCCNC(=N)N)NC(=O)[C@H](CO)NC1=O) [((N-Me)G)-IC+SRSLP-(Oic)-I-(Pen)+IP-((R)-Pyrrolidine-3-acetic acid)-OH] |
| 20 nM | 230 nM | [Sar]ICSRS[X13]P[Oic]I[Pen]IPD-OH (disulfide 3-11; N-terminus assumed; SMILES CC[C@H](C)[C@H](NC(=O)CNC)C(=O)N[C@H]1CSSC(C)(C)[C@@H](C(=O)N[C@H](C(=O)N2CCC[C@H]2C(=O)N[C@@H](CC(=O)O)C(=O)O)[C@@H](C)CC)NC(=O)[C@H]([C@@H](C)CC)NC(=O)[C@@H]2C[C@@H]3CCCC[C@@H]3N2C(=O)[C@@H]2CCCN2C(=O)[C@H](CC2(C)CC2)NC(=O)[C@H](CO)NC(=O)[C@H](CCCNC(=N)N)NC(=O)[C@H](CO)NC1=O) [((N-Me)G)-IC+SRS-((2S)-2-amino-3-(1-methylcyclopropyl)propanoic acid)-P-(Oic)-I-(Pen)+IPD-OH] |
| 7.5 nM | 65 nM | [dP]ICSRSLP[Oic]I[Pen]IP[Ida]-OH (disulfide 3-11; also: HCl salt) [pIC+SRSLP-(Oic)-I-(Pen)+IP-(Ida)-OH (HCl salt)] |
| 23 nM | 96 nM | [Sar]ICSRSLP[Oic]I[Pen]IP[Freidinger's Lactam]-OH (disulfide 3-11; N-terminus assumed; SMILES CC[C@H](C)[C@H](NC(=O)CNC)C(=O)N[C@H]1CSSC(C)(C)[C@@H](C(=O)N[C@H](C(=O)N2CCC[C@H]2C(=O)N[C@@H]2CCN([C@@H](CC(C)C)C(=O)O)C2=O)[C@@H](C)CC)NC(=O)[C@H]([C@@H](C)CC)NC(=O)[C@@H]2C[C@@H]3CCCC[C@@H]3N2C(=O)[C@@H]2CCCN2C(=O)[C@H](CC(C)C)NC(=O)[C@H](CO)NC(=O)[C@H](CCCNC(=N)N)NC(=O)[C@H](CO)NC1=O) [((N-Me)G)-IC+SRSLP-(Oic)-I-(Pen)+IP-(Freidinger's Lactam)-OH] |
| 7.8 nM | 1000 nM | AICSRS[tBuAla]P[Pro(cis-4-CF3)]ICIPD-OH (disulfide 3-11; N-terminus assumed; SMILES CC[C@H](C)[C@H](NC(=O)[C@H](C)N)C(=O)N[C@H]1CSSC[C@@H](C(=O)N[C@H](C(=O)N2CCC[C@H]2C(=O)N[C@@H](CC(=O)O)C(=O)O)[C@@H](C)CC)NC(=O)[C@H]([C@@H](C)CC)NC(=O)[C@@H]2C[C@H](C(F)(F)F)CN2C(=O)[C@@H]2CCCN2C(=O)[C@H](CC(C)(C)C)NC(=O)[C@H](CO)NC(=O)[C@H](CCCNC(=N)N)NC(=O)[C@H](CO)NC1=O) [AIC+SRS-((tBu)A)-P-((4-CF3)P)-IC+IPD-OH] |
| 3.1 nM | 510 nM | AICSRS[tBuAla]P[Pro(cis-4-CF3)]I[Pen]IPD-OH (disulfide 3-11; N-terminus assumed; SMILES CC[C@H](C)[C@H](NC(=O)[C@H](C)N)C(=O)N[C@H]1CSSC(C)(C)[C@@H](C(=O)N[C@H](C(=O)N2CCC[C@H]2C(=O)N[C@@H](CC(=O)O)C(=O)O)[C@@H](C)CC)NC(=O)[C@H]([C@@H](C)CC)NC(=O)[C@@H]2C[C@H](C(F)(F)F)CN2C(=O)[C@@H]2CCCN2C(=O)[C@H](CC(C)(C)C)NC(=O)[C@H](CO)NC(=O)[C@H](CCCNC(=N)N)NC(=O)[C@H](CO)NC1=O) [AIC+SRS-((tBu)A)-P-((4-CF3)P)-I-(Pen)+IPD-OH] |
| 7.5 nM | 1000 nM | AICSRSLP[Pro(cis-4-CF3)]ICIPD-OH (disulfide 3-11; N-terminus assumed; SMILES CC[C@H](C)[C@H](NC(=O)[C@H](C)N)C(=O)N[C@H]1CSSC[C@@H](C(=O)N[C@H](C(=O)N2CCC[C@H]2C(=O)N[C@@H](CC(=O)O)C(=O)O)[C@@H](C)CC)NC(=O)[C@H]([C@@H](C)CC)NC(=O)[C@@H]2C[C@H](C(F)(F)F)CN2C(=O)[C@@H]2CCCN2C(=O)[C@H](CC(C)C)NC(=O)[C@H](CO)NC(=O)[C@H](CCCNC(=N)N)NC(=O)[C@H](CO)NC1=O) [AIC+SRSLP-((4-CF3)P)-IC+IPD-OH] |

The remaining lines, values behind:

| Binder | human MASP1 IC50 [1] | human MASP2 IC50 [2] |
| --- | --- | --- |
| [Sar]ICSRS[Phe(2,5-diF)]PPI[Pen]IP[dE]-OH (disulfide 3-11; N-terminus assumed; SMILES CC[C@H](C)[C@H](NC(=O)CNC)C(=O)N[C@H]1CSSC(C)(C)[C@@H](C(=O)N[C@H](C(=O)N2CCC[C@H]2C(=O)N[C@H](CCC(=O)O)C(=O)O)[C@@H](C)CC)NC(=O)[C@H]([C@@H](C)CC)NC(=O)[C@@H]2CCCN2C(=O)[C@@H]2CCCN2C(=O)[C@H](Cc2cc(F)ccc2F)NC(=O)[C@H](CO)NC(=O)[C@H](CCCNC(=N)N)NC(=O)[C@H](CO)NC1=O) [((N-Me)G)-IC+SRS-((2,5-Difluoro)F)-PPI-(Pen)+IPe-OH] | 21 nM | 64 nM |
| [Sar]ICSRS[Phe(2,5-diF)]PPI[Pen]IPD[dD]-OH (disulfide 3-11; N-terminus assumed; SMILES CC[C@H](C)[C@H](NC(=O)CNC)C(=O)N[C@H]1CSSC(C)(C)[C@@H](C(=O)N[C@H](C(=O)N2CCC[C@H]2C(=O)N[C@@H](CC(=O)O)C(=O)N[C@H](CC(=O)O)C(=O)O)[C@@H](C)CC)NC(=O)[C@H]([C@@H](C)CC)NC(=O)[C@@H]2CCCN2C(=O)[C@@H]2CCCN2C(=O)[C@H](Cc2cc(F)ccc2F)NC(=O)[C@H](CO)NC(=O)[C@H](CCCNC(=N)N)NC(=O)[C@H](CO)NC1=O) [((N-Me)G)-IC+SRS-((2,5-Difluoro)F)-PPI-(Pen)+IPDd-OH] | 17 nM | 20 nM |
| [dA]ICSRS[tBuAla]P[Pro(4-spirocPr)]I[Pen]IPD-OH (disulfide 3-11; N-terminus assumed; SMILES CC[C@H](C)[C@H](NC(=O)[C@@H](C)N)C(=O)N[C@H]1CSSC(C)(C)[C@@H](C(=O)N[C@H](C(=O)N2CCC[C@H]2C(=O)N[C@@H](CC(=O)O)C(=O)O)[C@@H](C)CC)NC(=O)[C@H]([C@@H](C)CC)NC(=O)[C@@H]2CC3(CC3)CN2C(=O)[C@@H]2CCCN2C(=O)[C@H](CC(C)(C)C)NC(=O)[C@H](CO)NC(=O)[C@H](CCCNC(=N)N)NC(=O)[C@H](CO)NC1=O) [aIC+SRS-((tBu)A)-P-((6S)-5-Azaspiro[2.4]heptane-6-carboxylic acid)-I-(Pen)+IPD-OH] | 4.4 nM | 22 nM |
| [Sar]ICSRS[tBuAla]P[X15]I[Pen]IPD-OH (disulfide 3-11; N-terminus assumed; SMILES CC[C@H](C)[C@H](NC(=O)CNC)C(=O)N[C@H]1CSSC(C)(C)[C@@H](C(=O)N[C@H](C(=O)N2CCC[C@H]2C(=O)N[C@@H](CC(=O)O)C(=O)O)[C@@H](C)CC)NC(=O)[C@H]([C@@H](C)CC)NC(=O)[C@@H]2CC3(CCCC3)CN2C(=O)[C@@H]2CCCN2C(=O)[C@H](CC(C)(C)C)NC(=O)[C@H](CO)NC(=O)[C@H](CCCNC(=N)N)NC(=O)[C@H](CO)NC1=O) [((N-Me)G)-IC+SRS-((tBu)A)-P-((3S)-2-azaspiro[4.4]nonane-3-carboxylic acid)-I-(Pen)+IPD-OH] | 17.1 nM | 261 nM |
| [dA]ICSRS[tBuAla]P[Pro(4-spirocPr)]I[Pen]IP[dE]-OH (disulfide 3-11; N-terminus assumed; SMILES CC[C@H](C)[C@H](NC(=O)[C@@H](C)N)C(=O)N[C@H]1CSSC(C)(C)[C@@H](C(=O)N[C@H](C(=O)N2CCC[C@H]2C(=O)N[C@H](CCC(=O)O)C(=O)O)[C@@H](C)CC)NC(=O)[C@H]([C@@H](C)CC)NC(=O)[C@@H]2CC3(CC3)CN2C(=O)[C@@H]2CCCN2C(=O)[C@H](CC(C)(C)C)NC(=O)[C@H](CO)NC(=O)[C@H](CCCNC(=N)N)NC(=O)[C@H](CO)NC1=O) [aIC+SRS-((tBu)A)-P-((6S)-5-Azaspiro[2.4]heptane-6-carboxylic acid)-I-(Pen)+IPe-OH] | 4.4 nM | 24 nM |
| [Sar]ICSRS[tBuAla]P[Pro(3S,4R-methano)]I[Pen]IPD-OH (disulfide 3-11; N-terminus assumed; SMILES CC[C@H](C)[C@H](NC(=O)CNC)C(=O)N[C@H]1CSSC(C)(C)[C@@H](C(=O)N[C@H](C(=O)N2CCC[C@H]2C(=O)N[C@@H](CC(=O)O)C(=O)O)[C@@H](C)CC)NC(=O)[C@H]([C@@H](C)CC)NC(=O)[C@@H]2[C@H]3C[C@H]3CN2C(=O)[C@@H]2CCCN2C(=O)[C@H](CC(C)(C)C)NC(=O)[C@H](CO)NC(=O)[C@H](CCCNC(=N)N)NC(=O)[C@H](CO)NC1=O) [((N-Me)G)-IC+SRS-((tBu)A)-P-((1S,2S,5R)-3-azabicyclo[3.1.0]hexane-2-carboxylic acid)-I-(Pen)+IPD-OH] | 6.6 nM | 104 nM |
| [Sar]FCTRK[tBuAla][Pen]YPD-OH (disulfide 3-8; N-terminus assumed; SMILES CNCC(=O)N[C@@H](Cc1ccccc1)C(=O)N[C@H]1CSSC(C)(C)[C@@H](C(=O)N[C@@H](Cc2ccc(O)cc2)C(=O)N2CCC[C@H]2C(=O)N[C@@H](CC(=O)O)C(=O)O)NC(=O)[C@H](CC(C)(C)C)NC(=O)[C@H](CCCCN)NC(=O)[C@H](CCCNC(=N)N)NC(=O)[C@H]([C@@H](C)O)NC1=O) [((N-Me)G)-FC+TRK-((tBu)A)-(Pen)+YPD-OH] | 1000 nM | 1000 nM |
